“And” between values parts separate entries of the source, which are not always exact repeats. Equal values may be shown once.
Assay: Serum PK of Enhertu: total antibody, total ADC, free payload (HPLC-MS/MS), IV vs SC vs SC + rHuPH20
Conditions: for TADC/TAB Ratio: listed as ADC
Experimental: Serum concentrations of total ADC, total antibody and Free Payload (unconjugated deruxtecan) were determined in three separate assays using HPLC with MS/MS detection.
A 20.0-μL sample aliquot was diluted 10-fold. A portion of the diluted sample was taken and processed using an immunoaffinity approach. […] The bound proteins were subjected to “on-bead” proteolysis with trypsin. After trypsin digestion, the samples were split into two portions. One portion used the characteristic peptide fragments produced from the trypsin digestion to quantitate total antibody. The second portion was further digested using papain to hydrolyze Dxd from the antibody to quantitate total ADC.
VVSV was used for the quantitation of total antibody concentrations, DSTY was used for the quantitation of intact antibody (troubleshooting purposes only), and Dxd was used for quantitating Total ADC concentrations.
A nominal free Dxd, concentration range of […] was chosen to quantitate samples. This assay requires a 50.0 μL porcine serum and skin aliquot. Samples were kept frozen at −80° C. prior to analysis.
A matrix aliquot is fortified with internal standard. Analytes are isolated through acidified protein precipitation. The eluate is evaporated under a nitrogen stream, and the remaining residue is reconstituted. Final extracts are analyzed via HPLC MS/MS detection using positive ion electrospray.

## Sacituzumab govitecan [Trodelvy]
SC vs. ADC-IV
  Relative difference in serum AUC0-7, Free Payload, vs. ADC-IV: 83%
  Relative difference in serum AUC0-7, TAB, vs. ADC-IV: 59%
  Relative difference in serum AUC0-7, TADC, vs. ADC-IV: 60%
  Relative difference in serum Cmax, Free Payload, vs. ADC-IV: 70%
  Relative difference in serum Cmax, TAB, vs. ADC-IV: 28%
  Relative difference in serum Cmax, TADC, vs. ADC-IV: 29%
SC, 6 h
  TADC/TAB ratio - serum, mean: 1.054
SC, 24 h
  TADC/TAB ratio - serum, mean: 1.195
SC, 48 h
  TADC/TAB ratio - serum, mean: 0.796
SC, 72 h
  TADC/TAB ratio - serum, mean: 0.806
SC, 96 h
  TADC/TAB ratio - serum, mean: 0.765
SC, 168 h
  TADC/TAB ratio - serum, mean: 1.028
Minipig serum
  SC/IV, mean AUC0-7, ADC: 60%
  SC/IV, mean AUC0-7, Ab: 59%
  SC/IV, mean AUC0-7, Payload: 83%
  SC/IV, mean Cmax, ADC: 29%
  SC/IV, mean Cmax, Ab: 28%
  SC/IV, mean Cmax, Payload: 70%
Minipig serum, IV
  ADC/Ab ratio, mean AUC0-7: 86%
  ADC/Ab ratio, mean Cmax: 93%
  ADC/Payload ratio, mean AUC0-7: 116066%
  ADC/Payload ratio, mean Cmax: 201037%
Minipig serum, SC
  ADC/Ab ratio, mean AUC0-7: 87%
  ADC/Ab ratio, mean Cmax: 96%
  ADC/Ab ratio, mean Tmax: 60%
  ADC/Payload ratio, mean AUC0-7: 83512%
  ADC/Payload ratio, mean Cmax: 83474%
  ADC/Payload ratio, mean Tmax: 57%
pig, in vivo, iv
  AUC0-7, free payload in serum: 0.04 µg·days/mL
  AUC0-7, total ADC in serum: 47.73 µg·days/mL
  AUC0-7, total antibody in serum: 55.38 µg·days/mL
  AUC0-7 free payload: 0.04 µg·days/mL
  AUC0-7 total ADC (TADC): 47.73 µg·days/mL
  AUC0-7 total antibody (TAB): 55.38 µg·days/mL
  Cmax free payload: 0.01 µg/mL
  Cmax total ADC (TADC): 25.12 µg/mL
  Cmax total antibody (TAB): 27.00 µg/mL
  Cmax, free payload in serum: 0.01 µg/mL
  Cmax, total ADC in serum: 25.12 µg/mL
  Cmax, total antibody in serum: 27.00 µg/mL
  Tmax free payload: 0 days
  Tmax total ADC (TADC): 0 days
  Tmax total antibody (TAB): 0 days
  Tmax, free payload in serum: 0 days
  Tmax, total ADC in serum: 0 days
  Tmax, total antibody in serum: 0 days
pig, in vivo, iv, 0 h
  Total ADC concentration in the serum of minipigs: 25.12 µg/mL
pig, in vivo, iv, 5 mL
  Total ADC Result: <0.100 µg/mL
pig, in vivo, iv, 5 mL, 6 h
  Total ADC concentration in the serum of minipigs: 21.40 µg/mL
pig, in vivo, iv, 5 mL, 24 h
  Total ADC concentration in the serum of minipigs: 12.80 µg/mL
pig, in vivo, iv, 6 h
  Total ADC Result: 21.4 µg/mL
pig, in vivo, iv, 24 h
  Total ADC Result: 12.8 µg/mL
pig, in vivo, iv, 48 h
  Total ADC Result: 7.28 µg/mL
  Total ADC concentration in the serum of minipigs: 7.28 µg/mL
pig, in vivo, iv, 72 h
  Total ADC Result: 5.04 µg/mL
  Total ADC concentration in the serum of minipigs: 5.04 µg/mL
pig, in vivo, iv, 96 h
  Total ADC Result: 3.91 µg/mL
  Total ADC concentration in the serum of minipigs: 3.91 µg/mL
pig, in vivo, iv, 168 h
  Total ADC Result: 1.70 µg/mL
  Total ADC concentration in the serum of minipigs: 1.70 µg/mL
pig, in vivo, sc
  Tmax total ADC (TADC): 1 days
  Tmax, total ADC in serum: 1 days
pig, in vivo, sc, 0 h
  Total ADC Result: <0.100 µg/mL
pig, in vivo, sc, 5 mL, 6 h
  Total ADC concentration in the serum of minipigs: 4.08 µg/mL
pig, in vivo, sc, 5 mL, 24 h
  Total ADC concentration in the serum of minipigs: 7.27 µg/mL
pig, in vivo, sc, 48 h
  Total ADC concentration in the serum of minipigs: 5.17 µg/mL
pig, in vivo, sc, 72 h
  Total ADC concentration in the serum of minipigs: 4.35 µg/mL
pig, in vivo, sc, 96 h
  Total ADC concentration in the serum of minipigs: 3.74 µg/mL
pig, in vivo, sc, 168 h
  Total ADC concentration in the serum of minipigs: 2.04 µg/mL
serum, IV
  TADC/Free Payload, AUC0-7: 116066%
  TADC/Free Payload, Cmax: 201037%
  TADC/TAB, AUC0-7: 86%
  TADC/TAB, Cmax: 93%
serum, IV, 6 h, individual animal
  TADC/TAB Ratio: 0.92 and 0.918
serum, IV, 24 h, individual animal
  TADC/TAB Ratio: 0.87 and 0.871
serum, IV, 48 h, individual animal
  TADC/TAB Ratio: 0.80 and 0.804
serum, IV, 72 h, individual animal
  TADC/TAB Ratio: 0.88 and 0.877
serum, IV, 96 h, individual animal
  TADC/TAB Ratio: 0.77 and 0.773
serum, IV, 168 h, individual animal
  TADC/TAB Ratio: 0.99 and 0.994
serum, SC
  TADC/Free Payload, AUC0-7: 83512%
  TADC/Free Payload, Cmax: 83474%
  TADC/Free Payload, Tmax: 57%
  TADC/TAB, AUC0-7: 87%
  TADC/TAB, Cmax: 96%
  TADC/TAB, Tmax: 60%
serum, SC, 6 h, individual animals
  TADC/TAB Ratio: 1.01 and 1.13 and 1.03 and 1.006 and 1.129 and 1.026
serum, SC, 24 h, individual animals
  TADC/TAB Ratio: 1.55 and 0.84 and 1.19 and 1.546 and 0.845 and 1.194
serum, SC, 48 h, individual animals
  TADC/TAB Ratio: 0.81 and 0.82 and 0.76 and 0.808 and 0.823 and 0.756
serum, SC, 72 h, individual animals
  TADC/TAB Ratio: 0.76 and 0.72 and 0.93 and 0.763 and 0.721 and 0.934
serum, SC, 96 h, individual animals
  TADC/TAB Ratio: 0.74 and 0.73 and 0.82 and 0.744 and 0.731 and 0.819
serum, SC, 168 h, individual animals
  TADC/TAB Ratio: 1.20 and 0.89 and 0.99 and 1.204 and 0.891 and 0.989

— patent US20260069707A1, “COMBINATION THERAPY WITH ANTIBODY-DRUG CONJUGATES AND HYALURONIDASES” (HALOZYME, INC., priority 2024, published 2026)
